In series [1] the test system is HeLa Kyoto. The series is described as follows: thermal stability score vs G1/S (z-score of summed log2 fold changes over temperatures); higher = more thermally stable than in G1/S.
Series [2] relates to HeLa Kyoto. Description: solubility in G1/S (NP-40 vs SDS abundance) (log2 ratio); higher = more soluble. Conditions: cell cycle stage: G1/S.
Series [3] deals with HeLa Kyoto. Description: melting temperature (median over replicates), in situ; higher = more thermally stable.
Series [4] deals with HeLa Kyoto. The series is described as follows: solubility change mitosis vs G1/S (difference of NP-40 vs SDS log2 ratios) (log2 ratio difference); higher = more soluble in mitosis.
The mark [5] stands for this setting: cell cycle stage: early G1 (4.5 h after nocodazole release).
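For melting temperature (median over replicates), in situ in this document: HeLa Kyoto cells synchronized by double thymidine or nocodazole block, proteins quantified by TMT10plex mass spectrometry, three independent biological replicates.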
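For solubility change mitosis vs G1/S (difference of NP-40 vs SDS log2 ratios) in this document: synchronized HeLa Kyoto cells (double thymidine block for G1/S, nocodazole release for mitosis), protein amounts in NP-40 versus SDS lysates quantified by mass spectrometry, three biological replicates.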
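For solubility in G1/S (NP-40 vs SDS abundance) in this document: HeLa Kyoto cells arrested at G1/S by double thymidine block, proteins quantified by TMT10plex mass spectrometry in mild NP-40 versus SDS extracts, three biological replicates.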
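For thermal stability score vs G1/S (z-score of summed log2 fold changes over temperatures) in this document: synchronized HeLa Kyoto cells, proteins quantified by TMT10plex mass spectrometry, three biological replicates, mitosis taken 0.5 h after nocodazole release, G1/S directly after double thymidine block.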

As for “MKKASRSVGSVPKVSAISKTQTAEKIKPENSSSASTGGKLVKPGTAASLSKTKSSDDLLAGMAGGVTVTNGVKGKKSTCPSAAPSASAPAMTTVENKSKISTGTASSTKRSTSTGNKESSSTRERLRERTRLNQSKKLPSAGQGANDMALAKRSRSRTATECDVRMSKSKSDNQISDRAALEAKVKDLLTLAKTKDVEILHLRNELRDMRAQLGINEDHSEGDEKSEKETIMAHQPTDVESTLLQLQEQNTAIREELNQLKNENRMLKDRLNALGFSLEQRLDNSEKLFGYQSLSPEITPGNQSDGGGTLTSSVEGSAPGSVEDLLSQDENTLMDHQHSNSMDNLDSECSEVYQPLTSSDDALDAPSSSESEGIPSIERSRKGSSGNASEVSVACLTERIHQMEENQHSTSEELQATLQELADLQQITQELNSENERLGEEKVILMESLCQQSDKLEHFSRQIEYFRSLLDEHHISYVIDEDVKSGRYMELEQRYMDLAENARFEREQLLGVQQHLSNTLKMAEQDNKEAQEMIGALKERSHHMERIIESEQKGKAALAATLEEYKATVASDQIEMNRLKAQLENEKQKVAELYSIHNSGDKSDIQDLLESVRLDKEKAETLASSLQEDLAHTRNDANRLQDAIAKVEDEYRAFQEEAKKQIEDLNMTLEKLRSDLDEKETERSDMKETIFELEDEVEQHRAVKLHDNLIISDLENTVKKLQDQKHDMEREIKTLHRRLREESAEWRQFQADLQTAVVIANDIKSEAQEEIGDLKRRLHEAQEKNEKLTKELEEIKSRKQEEERGRVYNYMNAVERDLAALRQGMGLSRRSSTSSEPTPTVKTLIKSFDSASQVPNPAAAAIPRTPLSPSPMKTPPAAAVSPMQRHSISGPISTSKPLTALSDKRPNYGEIPVQEHLLRTSSASRPASLPRVPAMESAKTLSVSRRSSEEVKRDISAQEGASPASLMAMGTTSPQLSLSSSPTASVTPTTRSRIREERKDPLSALAREYGGSKRNALLKWCQKKTEGYQNIDITNFSSSWNDGLAFCALLHTYLPAHIPYQELNSQDKRRNFMLAFQAAESVGIKSTLDINEMVRTERPDWQNVMLYVTAIYKYFET [SPECC1L]”, the thermal stability score in series [1] (setting [5]) is 0.147; in series [1] (cell cycle stage: mitosis), -0.333. In series [2], the “solubility in G1/S (log2)” value is -0.183. In addition, the values for the melting temperature in series [3] (cell cycle stage: G1/S) and in series [3] (cell cycle stage: mitosis) were 50.8 °C and 50.7 °C, respectively. For the same sequence, in series [4], the “solubility change mitosis (log2)” value came to 0.448.

As for “MKLIILEHYSQASEWAAKYIRNRIIQFNPGPEKYFTLGLPTGSTPLGCYKKLIEYYKNGDLSFKYVKTFNMDEYVGLPRDHPESYHSFMWNNFFKHIDIHPENTHILDGNAVDLQAECDAFEEKIKAAGGIELFVGGIGPDGHIAFNEPGSSLVSRTRVKTLAMDTILANARFFDGELTKVPTMALTVGVGTVMDAREVMILITGAHKAFALYKAIEEGVNHMWTVSAFQQHPRTVFVCDEDATLELKVKTVKYFKGLMLVHNKLVDPLYSIKEKETEKSQSSKKPYSD [GNPDA1]”, the thermal stability score was -0.841 in series [1] (setting [5]) and -0.7 in series [1] (cell cycle stage: mitosis). Moreover, the “solubility in G1/S (log2)” value in series [2] is 0.183. For the same sequence, the melting temperature in series [3] (cell cycle stage: G1/S) came out at 61.5 °C; in series [3] (cell cycle stage: mitosis) it was 62.9 °C. In addition, the “solubility change mitosis (log2)” value in series [4] is -0.206.

“MKLKDTKSRPKQSSCGKFQTKGIKVVGKWKEVKIDPNMFADGQMDDLVCFEELTDYQLVSPAKNPSSLFSKEAPKRKAQAVSEEEEEEEGKSSSPKKKIKLKKSKNVATEGTSTQKEFEVKDPELEAQGDDMVCDDPEAGEMTSENLVQTAPKKKKNKGKKGLEPSQSTAAKVPKKAKTWIPEVHDQKADVSAWKDLFVPRPVLRALSFLGFSAPTPIQALTLAPAIRDKLDILGAAETGSGKTLAFAIPMIHAVLQWQKRNAAPPPSNTEAPPGETRTEAGAETRSPGKAEAESDALPDDTVIESEALPSDIAAEARAKTGGTVSDQALLFGDDDAGEGPSSLIREKPVPKQNENEEENLDKEQTGNLKQELDDKSATCKAYPKRPLLGLVLTPTRELAVQVKQHIDAVARFTGIKTAILVGGMSTQKQQRMLNRRPEIVVATPGRLWELIKEKHYHLRNLRQLRCLVVDEADRMVEKGHFAELSQLLEMLNDSQYNPKRQTLVFSATLTLVHQAPARILHKKHTKKMDKTAKLDLLMQKIGMRGKPKVIDLTRNEATVETLTETKIHCETDEKDFYLYYFLMQYPGRSLVFANSISCIKRLSGLLKVLDIMPLTLHACMHQKQRLRNLEQFARLEDCVLLATDVAARGLDIPKVQHVIHYQVPRTSEIYVHRSGRTARATNEGLSLMLIGPEDVINFKKIYKTLKKDEDIPLFPVQTKYMDVVKERIRLARQIEKSEYRNFQACLHNSWIEQAAAALEIELEEDMYKGGKADQQEERRRQKQMKVLKKELRHLLSQPLFTESQKTKYPTQSGKPPLLVSAPSKSESALSCLSKQKKKKTKKPKEPQPEQPQPSTSAN [DDX24]”: the values for the thermal stability score in series [1] (setting [5]) and in series [1] (cell cycle stage: mitosis) were -0.338 and 1.04, respectively. Besides, the “solubility in G1/S (log2)” value in series [2] is -1.47. Besides, the values for the melting temperature in series [3] (cell cycle stage: G1/S) and in series [3] (cell cycle stage: mitosis) were 49.9 °C and 50.5 °C, respectively. For the same sequence, the “solubility change mitosis (log2)” value in series [4] turned out to be 1.07.

As to “MKLKEVDRTAMQAWSPAQNHPIYLATGTSAQQLDATFSTNASLEIFELDLSDPSLDMKSCATFSSSHRYHKLIWGPYKMDSKGDVSGVLIAGGENGNIILYDPSKIIAGDKEVVIAQNDKHTGPVRALDVNIFQTNLVASGANESEIYIWDLNNFATPMTPGAKTQPPEDISCIAWNRQVQHILASASPSGRATVWDLRKNEPIIKVSDHSNRMHCSGLAWHPDVATQMVLASEDDRLPVIQMWDLRFASSPLRVLENHARGILAIAWSMADPELLLSCGKDAKILCSNPNTGEVLYELPTNTQWCFDIQWCPRNPAVLSAASFDGRISVYSIMGGSTDGLRQKQVDKLSSSFGNLDPFGTGQPLPPLQIPQQTAQHSIVLPLKKPPKWIRRPVGASFSFGGKLVTFENVRMPSHQGAEQQQQQHHVFISQVVTEKEFLSRSDQLQQAVQSQGFINYCQKKIDASQTEFEKNVWSFLKVNFEDDSRGKYLELLGYRKEDLGKKIALALNKVDGANVALKDSDQVAQSDGEESPAAEEQLLGEHIKEEKEESEFLPSSGGTFNISVSGDIDGLITQALLTGNFESAVDLCLHDNRMADAIILAIAGGQELLARTQKKYFAKSQSKITRLITAVVMKNWKEIVESCDLKNWREALAAVLTYAKPDEFSALCDLLGTRLENEGDSLLQTQACLCYICAGNVEKLVACWTKAQDGSHPLSLQDLIEKVVILRKAVQLTQAMDTSTVGVLLAAKMSQYANLLAAQGSIAAALAFLPDNTNQPNIMQLRDRLCRAQGEPVAGHESPKIPYEKQQLPKGRPGPVAGHHQMPRVQTQQYYPHGENPPPPGFIMHGNVNPNAAGQLPTSPGHMHTQVPPYPQPQPYQPAQPYPFGTGGSAMYRPQQPVAPPTSNAYPNTPYISSASSYTGQSQLYAAQHQASSPTSSPATSFPPPPSSGASFQHGGPGAPPSSSAYALPPGTTGTLPAASELPASQRTGPQNGWNDPPALNRVPKKKKMPENFMPPVPITSPIMNPLGDPQSQMLQQQPSAPVPLSSQSSFPQPHLPGGQPFHGVQQPLGQTGMPPSFSKPNIEGAPGAPIGNTFQHVQSLPTKKITKKPIPDEHLILKTTFEDLIQRCLSSATDPQTKRKLDDASKRLEFLYDKLREQTLSPTITSGLHNIARSIETRNYSEGLTMHTHIVSTSNFSETSAFMPVLKVVLTQANKLGV [SEC31A]”, the thermal stability score in series [1] (setting [5]) was determined as 1.55; in series [1] (cell cycle stage: mitosis), 4.43. The “solubility in G1/S (log2)” value in series [2] was determined as 0.0843. Further, the figures for the melting temperature in series [3] (cell cycle stage: G1/S) and in series [3] (cell cycle stage: mitosis) were 48.9 °C and 50 °C, respectively. Moreover, in series [4], the “solubility change mitosis (log2)” value was -0.144.
